US20130012451

Target: CD44, P16070
Sequence (P16070 other isoform, or with tags, fused parts or gaps): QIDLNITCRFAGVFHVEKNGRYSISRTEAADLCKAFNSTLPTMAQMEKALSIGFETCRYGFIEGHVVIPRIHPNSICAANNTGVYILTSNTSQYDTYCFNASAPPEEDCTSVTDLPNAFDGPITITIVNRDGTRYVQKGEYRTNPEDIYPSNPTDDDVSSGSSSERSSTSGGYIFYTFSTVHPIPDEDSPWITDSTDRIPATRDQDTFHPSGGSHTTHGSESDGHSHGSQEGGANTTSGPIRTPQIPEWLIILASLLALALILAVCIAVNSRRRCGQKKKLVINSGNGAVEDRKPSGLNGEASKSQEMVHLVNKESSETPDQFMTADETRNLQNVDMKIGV

B1: Matrix Metalloproteinase-9 (MMP-9), wild type (protein)
chain: APRQRQSTLVLFPGDLRTNLTDRQLAEEYLYRYGYTRVAEMRGESKSLGPALLLLQKQLSLPETGELDSATLKAMRTPRCGVPDLGRFQTFEGDLKWHHHNITYWIQNYSEDLPRAVIDDAFARAFALWSAVTPLTFTRVYSRDADIVIQFGVAEHGDGYPFDGKDGLLAHAFPPGPGIQGDAHFDDDELWSLGKGVVVPTRFGNADGAACHFPFIFEGRSYSACTTDGRSDGLPWCSTTANYDTDDRFGFCPSERLYTQDGNADGKPCQFPFIFQGQSYSACTTDGRSDGYRWCATTANYDRDKLFGFCPTRADSTVMGGNSAGELCVFPFTFLGKEYSTCTSEGRGDGRLWCATTSNFDSDKKWGFCPDQGYSLFLVAAHEFGHALGLDHSSVPEALMYPMYRFTEGPPLHKDDVNGIRHLYGPRPEPEPRPPTTTTPQPTAPPTVCPTGPPTVHPSERPTAGPTGPPSAGPTGPPTAGPSTATTVPLSPVDDACNVNIFDAIAEIGNQLYLFKDGKYWRFSEGRGSRPQGPFLIADKWPALPRKLDSVFEERLSKKLFFFSGRQVWVYTGASVLGPRRLDKLGLGADVAQVTGALRSGRGKMLLFSGRRLWRFDVKAQMVDPRSASEVDRMFPGVPLDTHDVFQYREKAYFCQDRFYWRVSSRSELNQVDQVGYVTYDILQCPED
- phosphorylation of EGFR, western blotting: expression of MMP-9 in wild type COS-1 cells resulted in increased phosphorylation of EGFR as compared to vector control. This activation of EGFR did not occurred in CD44-silenced COS-1 cells transfected with MMP-9 cDNA
